US20250011423A1 (ASCENDO BIOTECHNOLOGY, published 2025)
Positions count from the first letter of the chain named. Values belong to the binder of their own block, whether it stands above or below them.

Assays:
human TREML1 ECD = molecular target: T1, human TREML1 ECD (human, UniProt Q86YW5 16-162); assay: solid phase binding assay (ELISA), antigen coated
T1 construct: Any tags are not described; also called soluble TREML1; soluble TLT1
T1 sequence: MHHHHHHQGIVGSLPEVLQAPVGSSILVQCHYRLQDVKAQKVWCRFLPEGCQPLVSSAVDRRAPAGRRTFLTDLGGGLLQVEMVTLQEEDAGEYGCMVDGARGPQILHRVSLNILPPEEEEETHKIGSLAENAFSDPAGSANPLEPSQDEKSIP
Procedure: (§1) To investigate the TREML1/I-domain of CD11 b interaction, 5 μg/ml of recombinant I-domain of CD11 b (SEQ ID: 1) and BSA (negative control) proteins were coated separately on 96 well plates and incubated overnight at 4° C. Plates were added the blocking buffer (2% BSA in PBS) to avoid the nonspecific binding for 2 hours (hrs) at room temperature. A serial diluted TREML1 ECD was added and allowed to incubate at room temperature for 2 hrs. 1ug/ml of anti-TREML1 antibody (MAB2394, R&D systems) was added for 1 hr. Next, the secondary antibody with HRP labeling, anti-Rat IgG-HRP, was added to the plate and incubated for 30 minutes at room temperature. Plates were washed thrice with 0.05% tween 20 PBS buffer (PBST) between each step. Finally, TMB substrate was added and incubated for 10-15 min to detect HRP labeling antibody. After that, a stop solution of 1N HCL was added to stop the reaction. Absorbance at OD450/540 nm was measured by a microplate reader. To measure the half-maximal saturation binding of anti-TREML1 antibodies to TREML1, 5 μg/ml of human TREML1 ECD (SEQ ID: 2) or mouse TREML1 ECD (SEQ ID: 3) were coated on 96 well plates and incubated overnight at 4° C. Plates were added the blocking buffer (2% BSA in PBS) to avoid the nonspecific binding for 2 hr at room temperature. A serial diluted anti-TREML1 antibody was added and allowed to incubate at room temperature for 2 hr. Next, the secondary antibody with HRP labeling, anti-mouse IgG-HRP, was added to the plate and incubated for 30 minutes at room temperature. Plates were washed three times with 0.05% tween20 PBS buffer (PBST) between each step. Finally, TMB substrate was added and incubated for 10-15 min to detect HRP labeling antibody. After that, a stop solution of 1N HCL was added to stop the reaction. Absorbance at OD450/540 nm was measured by a microplate reader.

mouse TREML1 ECD = molecular target: T2, mouse TREML1 ECD (mouse, UniProt Q8K558 21-175); assay: solid phase binding assay (ELISA), antigen coated
T2 construct: also called murine TREML1 ECD
T2 sequence: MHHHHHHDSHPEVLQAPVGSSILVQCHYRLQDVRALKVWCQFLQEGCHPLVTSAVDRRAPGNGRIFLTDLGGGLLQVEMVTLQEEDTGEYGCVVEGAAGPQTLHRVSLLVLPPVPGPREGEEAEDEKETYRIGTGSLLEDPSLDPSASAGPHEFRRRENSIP
Procedure: as §1

EC50 (human TREML1 ECD): 0.25 nM
EC50 (mouse TREML1 ECD): 33.4 nM
B1: Anti-TREML1 Antibody Clone 18D8 (antibody, V domains shown)
VH: EVQVQQSGPELVNPGASVRLSCKASGYIFTDYVIHWVRQKPGQGLEWIGYMNPYTDGPKYSDKIKDKAILTSDRSSNTVYMELRSLTSEDSAVYFCARDFNYYVGAMDFWGQGTSVTVSS
VL: DVVLTQTPLSLPVSLGDQASVSCRSSQSLLHSNGNTYLHWYLQKPGQSPKLLIYKVSNRFSGVPDRFTGSGSGTDFTLKISRVEAEDLGVYFCSQSTHIWTFGGGTKLEIK
notes: It was detected with anti-mouse IgG

EC50 (human TREML1 ECD): 0.31 nM
EC50 (mouse TREML1 ECD): 24.9 nM
B2: Anti-TREML1 Antibody Clone 27D3 (antibody, V domains shown)
VH: DVQLQQSGPELVKPGASVKMSCKASGYTFTEYVIHWVKQRPGQGLEWFGYFNPYTGGSKFNEKFKDKATLTSDRSSNTVYMELYSLTSEDSAVYYCARDFNYYVGAMDYWGQGTSVTVSS
VL: B1 VL with V3A, V21I, L30V, P45S, T68S, G73V, D75E, T97S, K107R
notes: as for B1

EC50 (human TREML1 ECD): 0.32 nM
EC50 (mouse TREML1 ECD): 0.4 nM
B3: Anti-TREML1 Antibody Clone 26A6 (antibody, V domains shown)
VH: EVKLVESGGGLVQPGGSRKLSCAASGFTFSDYGMAWVRQAPGKGPEWIAFISNLAYRIYYADTVTGRFTISRENAKNTLYLEMSSLRSEDSAIYYCVREDYGNNGAMDYWGQGTSVTVSS
VL: DVLMTQTPLSLPVSLGDQASISCRSSQSIVHSNGNTYLEWYLQKPGQSPKLLIYKVSNRFSGVPDRFSGSGSGTDFTLKISRVEAEDLGVYYCFQGSHVPPTFGGGTKLEIK
notes: It was detected with anti-mouse IgG, so it is a mouse antibody

EC50 (human TREML1 ECD): 0.27 nM
EC50 (mouse TREML1 ECD): 0.82 nM
B4: Anti-TREML1 Antibody Clone 23F10 (antibody, V domains shown)
VH: EVQLQQSGPELVRPGASVKVSCKASGYIFTDYVIHWVKQKPGQGLEWFGYINPYTGGPKYSETARGKATLTSDSSSNTAYMVLTSLTSDDSAVYYCTRDFNYYVGAMDFWGQGTSVTVSS
VL: AAVLTQTPLSLPVSLGDQASISCRSTQSLVHSNGNTYVHWYLQKAGQSPKLLIYKVSNRFSGVPDRFSGSGSGTDFTLKISRVEAEDLGVYFCSQSTYVWTFGGGTKLEIE
notes: as for B1

EC50 (human TREML1 ECD): 0.18 nM
EC50 (mouse TREML1 ECD): 0.94 nM
B5: Anti-TREML1 Antibody Clone 29F4 (antibody, V domains shown)
VH: B4 VH with R65K, D89E
VL: B4 VL with A1G, R24K, S68I
notes: as for B1

EC50 (human TREML1 ECD): 0.3 nM
EC50 (mouse TREML1 ECD): 2.48 nM
B6: Anti-TREML1 Antibody Clone 28A9 (antibody, V domains shown)
VH: EVQLQQSGPELVKPGASVKMSCKASGYTFTNYVMHWVKQKPGQGLEWIGYFNPYNGHAKYSEKFTGKATLTSDRSSSTAYMELNSLTSEDSAVYYCTRDFNYYVGAMDYWGQGTSVTVSS
VL: DVVMTQSPLSLPVNLGDHASISCRSSQSLIHSNGNTYLHWYLQKPGQSPKLLVYQVSKRFSGVPDRFSGSGSGTDFTLKISRVEAEDLGVYFCSQSTHIWTFGGGTTLEIK
notes: as for B1
